In paper PMC11507936:

Tests used:
[1] = molecular target: SARS-CoV-2 Nucleocapsid protein (N), unmodified (SARS-CoV-2) (UniProt P0DTC9); assay: […]
[2] = molecular target: phosphorylated SARS-CoV-2 Nucleocapsid protein (pN) (SARS-CoV-2) (UniProt P0DTC9); assay: […]

| Substance | partition coefficient [1] | partition coefficient [2] |
| --- | --- | --- |
| 6xHis-GFP-M^104–222 (C-terminal endodomain of the SARS-CoV-2 Membrane protein) (from UniProt P0DTC5 104-222) (domain or fragment) | 9.8 | 0.3 |
| 6xHis-GFP-Nsp3^1–111 (ubiquitin-like domain 1 of SARS-CoV-2 Nsp3) (domain or fragment) | 12.6 | 2.2 |
